Square brackets hold non-standard residues; d marks the D form. Ends that are not written are not given here. Nle = CCCC[C@H](N)C(=O)O
Tests used:
[1] = target: wild-type CFTR (cystic fibrosis transmembrane conductance regulator) (UniProt P13569 1-1480, limits assumed); test: cell-based or functional assay
[2] = target: mutant G551D CFTR (UniProt P13569 1-1480, limits assumed); test: cell-based or functional assay
Sequence of mutant G551D CFTR (P13569 whole entry G551D): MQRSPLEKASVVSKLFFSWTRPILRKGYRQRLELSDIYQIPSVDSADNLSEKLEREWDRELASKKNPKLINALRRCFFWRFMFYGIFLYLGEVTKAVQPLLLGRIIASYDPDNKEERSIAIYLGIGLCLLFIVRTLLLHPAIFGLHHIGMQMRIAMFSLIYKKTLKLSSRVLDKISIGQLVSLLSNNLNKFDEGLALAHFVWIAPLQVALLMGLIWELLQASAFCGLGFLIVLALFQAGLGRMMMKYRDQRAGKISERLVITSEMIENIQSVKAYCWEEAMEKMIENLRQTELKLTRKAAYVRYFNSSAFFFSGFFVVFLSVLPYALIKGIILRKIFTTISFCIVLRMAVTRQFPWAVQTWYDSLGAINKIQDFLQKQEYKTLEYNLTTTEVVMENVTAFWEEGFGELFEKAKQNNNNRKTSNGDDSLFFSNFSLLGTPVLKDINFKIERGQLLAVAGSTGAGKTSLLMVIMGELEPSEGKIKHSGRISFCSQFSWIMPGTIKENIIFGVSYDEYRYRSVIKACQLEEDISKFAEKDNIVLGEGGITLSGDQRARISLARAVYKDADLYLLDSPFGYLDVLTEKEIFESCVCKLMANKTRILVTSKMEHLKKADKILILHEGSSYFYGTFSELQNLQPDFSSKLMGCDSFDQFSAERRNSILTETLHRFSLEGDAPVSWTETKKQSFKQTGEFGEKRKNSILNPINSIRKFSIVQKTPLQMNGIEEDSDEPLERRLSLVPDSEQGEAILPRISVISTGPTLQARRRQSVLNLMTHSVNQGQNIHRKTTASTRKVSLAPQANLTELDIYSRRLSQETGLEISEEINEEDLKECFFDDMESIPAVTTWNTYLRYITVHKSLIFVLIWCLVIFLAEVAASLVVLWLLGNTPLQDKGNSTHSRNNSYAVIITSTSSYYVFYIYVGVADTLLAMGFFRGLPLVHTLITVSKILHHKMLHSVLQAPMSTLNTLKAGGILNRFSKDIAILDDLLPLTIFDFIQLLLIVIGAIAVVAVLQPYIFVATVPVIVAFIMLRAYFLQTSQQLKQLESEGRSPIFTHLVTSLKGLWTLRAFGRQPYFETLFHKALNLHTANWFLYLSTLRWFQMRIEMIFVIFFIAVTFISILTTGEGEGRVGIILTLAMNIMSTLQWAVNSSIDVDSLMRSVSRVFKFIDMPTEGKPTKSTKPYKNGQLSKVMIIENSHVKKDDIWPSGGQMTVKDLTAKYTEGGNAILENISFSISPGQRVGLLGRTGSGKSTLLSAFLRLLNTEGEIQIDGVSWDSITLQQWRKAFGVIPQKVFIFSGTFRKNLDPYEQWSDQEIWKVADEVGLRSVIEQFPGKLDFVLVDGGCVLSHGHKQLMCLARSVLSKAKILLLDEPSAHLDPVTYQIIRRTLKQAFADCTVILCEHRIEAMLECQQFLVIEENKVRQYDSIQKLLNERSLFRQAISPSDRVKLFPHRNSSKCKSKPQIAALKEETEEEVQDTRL

Sequence of wild-type CFTR (cystic fibrosis transmembrane conductance regulator) (P13569 whole entry): as the sequence (P13569 whole entry G551D) above, with D551G counted along it

Ac-GLEISEQINQQNLKQSFFND[Nle]E [Q4N2NEG2 polypeptide]
open probability (Po) of CFTR channels in planar lipid bilayer [1]: 2 fold
open probability of single wt-CFTR channels in planar lipid bilayer, 4 µM peptide, 5 experiments [1]: ~2 fold
open probability in planar lipid bilayer [2]: ~3 fold

Source: patent US20030100501A1 (CASE WESTERN RESERVE UNIVERSITY, published 2003)
